T1: SATB1 (UniProt Q01826 Q01826:1-763)
T1 sequence: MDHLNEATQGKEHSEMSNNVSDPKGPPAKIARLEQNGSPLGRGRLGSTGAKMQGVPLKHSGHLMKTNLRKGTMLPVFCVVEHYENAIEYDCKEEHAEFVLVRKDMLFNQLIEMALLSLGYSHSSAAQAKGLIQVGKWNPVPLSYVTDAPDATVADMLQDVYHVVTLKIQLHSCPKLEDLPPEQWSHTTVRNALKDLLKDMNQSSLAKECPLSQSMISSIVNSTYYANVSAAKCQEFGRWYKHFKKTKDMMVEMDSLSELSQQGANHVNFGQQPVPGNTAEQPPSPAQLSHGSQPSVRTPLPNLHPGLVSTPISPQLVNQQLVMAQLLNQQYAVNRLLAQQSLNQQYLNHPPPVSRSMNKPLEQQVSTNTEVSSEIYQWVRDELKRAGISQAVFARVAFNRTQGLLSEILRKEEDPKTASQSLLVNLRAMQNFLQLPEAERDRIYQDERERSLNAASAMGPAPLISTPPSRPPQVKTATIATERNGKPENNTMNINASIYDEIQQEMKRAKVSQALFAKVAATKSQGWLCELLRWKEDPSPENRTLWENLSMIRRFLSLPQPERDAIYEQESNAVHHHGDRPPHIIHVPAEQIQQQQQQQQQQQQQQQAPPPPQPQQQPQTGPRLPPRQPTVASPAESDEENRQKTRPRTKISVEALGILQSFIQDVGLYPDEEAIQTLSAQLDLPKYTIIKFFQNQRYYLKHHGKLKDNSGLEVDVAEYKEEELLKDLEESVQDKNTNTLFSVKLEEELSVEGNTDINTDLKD

B1: CMV-687 to -640 (dsDNA)
DNA 1: TAAATCAATATTGGCTATTGGCCATTGCATACGTTGTATCTATATCATAATATGTACA
DNA 2: TGTACATATTATGATATAGATACAACGTATGCAATGGCCAATAGCCAATATTGATTTA
B2: CMV-593 to -549 (dsDNA)
DNA 1: GGCATTGATTATTGACTAGTTATTAATAGTAATCAATTACGGGGTCATTAGTTCA
DNA 2: TGAACTAATGACCCCGTAATTGATTACTATTAATAACTAGTCAATAATCAATGCC
B3: CMV-639 to -594 (dsDNA)
DNA 1: TATATGTACATTTATATTGGCTCATGTCCAATATGACCGCCATGTTGGCATTGATT
DNA 2: AATCAATGCCAACATGGCGGTCATATTGGACATGAGCCAATATAAATGTACATATA

Columns and labels:
[1] = biological target: CDP (CUX1) (UniProt P39880 P39880:1-1505); test: EMSA; conditions: tags: pCITE-CDP, TNT reticulocyte lysate; label: radiolabel
Sequence of CDP (CUX1) (P39880 whole entry, one chain of several): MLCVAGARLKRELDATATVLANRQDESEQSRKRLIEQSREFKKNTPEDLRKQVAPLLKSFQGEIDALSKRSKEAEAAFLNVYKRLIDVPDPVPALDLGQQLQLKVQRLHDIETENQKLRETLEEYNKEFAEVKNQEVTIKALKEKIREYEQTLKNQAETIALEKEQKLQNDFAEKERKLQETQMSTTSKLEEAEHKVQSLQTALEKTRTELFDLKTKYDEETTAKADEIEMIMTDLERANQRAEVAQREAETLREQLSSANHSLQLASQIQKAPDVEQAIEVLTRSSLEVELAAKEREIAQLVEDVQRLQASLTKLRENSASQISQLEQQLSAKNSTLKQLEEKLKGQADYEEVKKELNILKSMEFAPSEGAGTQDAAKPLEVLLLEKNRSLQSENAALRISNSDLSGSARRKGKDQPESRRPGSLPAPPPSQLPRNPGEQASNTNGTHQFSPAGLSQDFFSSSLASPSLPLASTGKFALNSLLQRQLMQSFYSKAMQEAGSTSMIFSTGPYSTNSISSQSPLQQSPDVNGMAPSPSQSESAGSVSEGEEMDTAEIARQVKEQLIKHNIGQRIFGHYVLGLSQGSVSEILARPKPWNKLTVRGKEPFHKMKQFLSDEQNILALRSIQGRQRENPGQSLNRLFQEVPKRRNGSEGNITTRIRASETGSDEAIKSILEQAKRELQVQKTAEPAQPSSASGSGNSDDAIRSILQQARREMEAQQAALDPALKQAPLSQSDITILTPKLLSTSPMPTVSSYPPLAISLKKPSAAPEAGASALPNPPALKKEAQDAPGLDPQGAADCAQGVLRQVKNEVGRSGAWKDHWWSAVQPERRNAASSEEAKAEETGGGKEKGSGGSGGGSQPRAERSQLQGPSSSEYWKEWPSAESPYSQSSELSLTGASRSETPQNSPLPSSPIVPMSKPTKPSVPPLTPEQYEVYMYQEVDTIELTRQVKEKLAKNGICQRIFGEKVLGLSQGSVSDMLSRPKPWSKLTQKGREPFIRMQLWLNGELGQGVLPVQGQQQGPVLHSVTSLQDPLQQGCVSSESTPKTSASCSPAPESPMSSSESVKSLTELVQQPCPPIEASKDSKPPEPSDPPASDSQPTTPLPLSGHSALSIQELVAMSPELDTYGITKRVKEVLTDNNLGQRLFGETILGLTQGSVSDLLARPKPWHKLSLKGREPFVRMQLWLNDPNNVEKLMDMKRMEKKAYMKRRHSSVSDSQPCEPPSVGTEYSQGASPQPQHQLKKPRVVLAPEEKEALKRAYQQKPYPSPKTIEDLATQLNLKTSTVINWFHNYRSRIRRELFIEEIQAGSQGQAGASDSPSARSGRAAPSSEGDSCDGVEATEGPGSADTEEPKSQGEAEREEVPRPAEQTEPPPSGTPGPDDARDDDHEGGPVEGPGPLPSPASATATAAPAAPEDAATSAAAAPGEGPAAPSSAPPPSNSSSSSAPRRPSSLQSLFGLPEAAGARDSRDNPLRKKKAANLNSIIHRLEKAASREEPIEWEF

[2] = biological target: T2, PDX1 (UniProt P52945 P52945:1-283); test: EMSA; positive control; conditions: tags: pCITE-PDX1, TNT reticulocyte lysate; label: radiolabel
T2 sequence (P52945 whole entry, one chain of several): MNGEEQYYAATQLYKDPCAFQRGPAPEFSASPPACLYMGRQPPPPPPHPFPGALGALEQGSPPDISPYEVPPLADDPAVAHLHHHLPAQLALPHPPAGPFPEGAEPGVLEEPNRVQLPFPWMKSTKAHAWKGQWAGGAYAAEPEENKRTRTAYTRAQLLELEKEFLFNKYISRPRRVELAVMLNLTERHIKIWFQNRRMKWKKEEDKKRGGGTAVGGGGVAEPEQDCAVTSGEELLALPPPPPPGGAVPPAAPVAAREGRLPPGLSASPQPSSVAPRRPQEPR

[3] = biological target: T1, SATB1; test: EMSA; conditions: tags: pCITE-SATB1, TNT reticulocyte lysate; label: radiolabel
[4] = biological target: T2, PDX1; test: EMSA; conditions: tags: pCITE-PDX1, TNT reticulocyte lysate; label: radiolabel

Binder	binding result [1]	binding result [2]	binding result [3]	binding result [4]
B1	binds			
B2	binds	binds		
B3	no binding		no binding	no binding

Source: patent publication US20060035214, “Screening methods for identifying inhibitors of herpesviral replication” (IRM LLC, a Delaware Limited Liability Company, published 2006)
